± gives the standard error. Fewer inactive variants are shown than the library holds.
B1: glmS ribozyme (parent)
chain: AUAAAAGCGCCAGAACUACAGAAAUGUAGUUGACGAGGAGGAGGUUUAUCGAAUUUUCGGCGGAUGCCUCCAAA

What was measured:
Settings in all cases: with glucosamine-6-phosphate
[1] = variants of: B1; assay: self-cleavage kobs at 160 uM GlcN6P; higher = faster cleavage; RNA array
Outline: (§1)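 Ribozyme variants carrying barcodes were transcribed in situ on sequenced MiSeq chips by E. coli RNA polymerase and tracked at 37 °C with a hybridised Cy3 probe. They were exposed to 40 μM to 10 mM glucosamine-6-phosphate in HEPES/KCl/Mg(OAc)2 buffer. kobs came from exponential decay fits of normalised per-tile medians, and kcat and KM from weighted Michaelis–Menten fits.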

[2] = variants of: B1; assay: self-cleavage kobs at 640 uM GlcN6P; higher = faster cleavage; RNA array
Outline: as §1

[3] = variants of: B1; assay: self-cleavage kobs at 10000 uM GlcN6P; higher = faster cleavage; RNA array
Outline: as §1

[4] = variants of: B1; assay: self-cleavage kobs at 2500 uM GlcN6P; higher = faster cleavage; RNA array
Outline: as §1

| Variant | self-cleavage kobs at 160 uM GlcN6P [1] [s⁻¹] | self-cleavage kobs at 640 uM GlcN6P [2] [s⁻¹] | self-cleavage kobs at 10000 uM GlcN6P [3] [s⁻¹] | self-cleavage kobs at 2500 uM GlcN6P [4] [s⁻¹] |
| --- | --- | --- | --- | --- |
| AUAAAAGCGCCGGAACUACAGAAAUGUAGUUGACGAGUAGGAGGUUUAUCGAAUUUCCGGCGGAUGCCUCCAAA [A12G G38U U57C] | < 1e-05 | < 1e-05 | < 1e-05 | – |
| AUAAAAGCGCCAGAACUACAGAAAUGUAGUUGAGGCGUAGGAGGUUUAUCGAAUUUUCGGCGGCUGCCUCCAAA [C34G A36C G38U A64C] | < 1e-05 | – | – | – |
| AUAAAGUCGCCAGGACUACAGAAAUGUAGUUGCCGAGGAGGAGGUUUAUCGAAUUUUCGGCGGAUGCCUCCAAA [A6G G7U A14G A33C] | < 1e-05 | – | – | – |
| AUAAAAGCGCCAGAACUACAGAAAUGUAGUUUACGAGGAGGAGGUUUAUCGUAUUUUCGGCGGAUGCCUCCAAA [G32U A52U] | < 1e-05 | < 1e-05 | – | < 1e-05 |
| AUAAAAACGCCAGAACUACAGAAAUGUAGUUGACGAGGAGGAGGUUUAUCGAAUUUUCGGCGGAUGCCUCGAAA [G7A C71G] | < 1e-05 | – | – | – |
| AUAAAAGCGCCAGAACUACAGAAAUGUAGUAGACGAGGAGGAGGUUUAUCAAAUUUUCGGCGGAUGCCUCCAAA [U31A G51A] | < 1e-05 | < 1e-05 | < 1e-05 | < 1e-05 |
| AUAAAAGCGCCAGAGCUACAGAAAUGUAGUAGACUAGGAGGAGGUUUAUCGAAUUUUCGGCGGAUGGCUCCAAA [A15G U31A G35U C67G] | < 1e-05 | < 1e-05 | – | < 1e-05 |
| AUAAAAGCGCCAGAACUACAGAAAUGUAGGUAACGAGGAGGAGGUUUGUCGAAUUUUCGGCCGAUGCCUCCAAA [U30G G32A A48G G62C] | < 1e-05 | < 1e-05 | – | < 1e-05 |
| AUAAAAGCGACAGGACUACAGAAAUGUAGUUGACGAGGAGGAGGUUUAUCGAAUUUUCGGCGGAUGCCUCCAAA [C10A A14G] | < 1e-05 | – | 3.58e-05 ± 1.1e-05 | – |
| AUAAAAGCGCCAGAAGUACAGAAAUGUAGUUGACGAGGAGGAGGUUUAUCGAAUUUUCGGCGGAUGGCUCCAAA [C16G C67G] | 0.000347 ± 0.00013 | 9.56e-05 ± 1.7e-05 | 6.6e-05 ± 7e-06 | 8.7e-05 ± 1.4e-05 |
| AUAAAAGCGCCAGAUCUACAGAAAUGUAGUUGACGAGGAGGAGGUUUAUCGAAUUUUCGUUGGAUGCCUCCAAA [A15U G60U C61U] | < 1e-05 | – | – | – |
| AUAAAAGCGCCAGAACUACAGAAAUGUAGAUGACGAGGAGGAGGUUUAUCGAAUUGUCGGCGGAUGCCUCCAAA [U30A U56G] | 0.000202 ± 6.6e-05 | 0.00118 ± 0.00024 | – | 0.0019 ± 0.00059 |
| AUAAAAGCGGCAGAACUACAGAAAUGUAGUCGCCGAGGAGGAGGUUUAUCUAAUUUUCGGCGGAUGCCUCUAAA [C10G U31C A33C G51U C71U] | < 1e-05 | < 1e-05 | – | – |
| AUAAAAGCACCAGAAUUACAGAAAUGUAGUUGACGAGGAGAAGGUUUUUCGAAUUUUCGGCGGAUGCCUCCAAA [G9A C16U G41A A48U] | < 1e-05 | < 1e-05 | < 1e-05 | < 1e-05 |
| AUAAAAGCGACAGAACUACAGAAAUGUAGUUGACGAGGAGGUGGUUUAUCGAAUUUUCGGCGGAUGCCUCCAAA [C10A A42U] | < 1e-05 | < 1e-05 | – | < 1e-05 |
| AUAAAAGCGCCAGAACUACAGAAAUGUAGGUGACGAGGAGGAGGUUUAUCGAAUUUCCGGCCGAUGCCUCCAAA [U30G U57C G62C] | < 1e-05 | < 1e-05 | – | – |

| Variant | self-cleavage kobs at 160 uM GlcN6P [1] [s⁻¹] | self-cleavage kobs at 640 uM GlcN6P [2] [s⁻¹] | self-cleavage kobs at 10000 uM GlcN6P [3] [s⁻¹] | self-cleavage kobs at 2500 uM GlcN6P [4] [s⁻¹] |
| --- | --- | --- | --- | --- |
| AUAAAAGCGCCAGAACUACAGAAAUGUAGUUGACGAGGAGGAGUUUUAUCGAAUUUUCGGAGGAUGUCUGCAAA [G44U C61A C67U C70G] | < 1e-05 | < 1e-05 | – | < 1e-05 |
| AUAAAAGUGCCAGAACUACAGAAAUGUAGUUGACCAGGAGGAGGUUUAUCGAAUUUUCGGCGGAUGCCUGCAAA [C8U G35C C70G] | < 1e-05 | – | – | – |
| AUAAAAGCGACAGAAUUACAGAAAUGUAGUUGACGAGGAGACGGUUUAUCGAAUUUUCGGCGGAUGCCUCCAAA [C10A C16U G41A A42C] | < 1e-05 | < 1e-05 | < 1e-05 | < 1e-05 |
| AUAAAAGCGCAAGAACUACAGAAAUGUAGUUGACGAGGAGGAGGUGUAUCGAAUUUUCGGCGGAUGCCUCCAAA [C11A U46G] | < 1e-05 | < 1e-05 | 4.72e-05 ± 2.1e-05 | – |
| AUAAAAGCGCCAGAACUACAGAAAUGUAGUUGACAAGGAGCAGGUUUAUCGAAUUUUCGGCGGAUGCCUCCAAA [G35A G41C] | < 1e-05 | < 1e-05 | – | – |
| AUAAAAUCGCCAGAACUACAGAAAUGUAGUUGACGAGGAGGAGGUUUAUAGAAUUUUCGGCGGAUGCCUCCAAA [G7U C50A] | < 1e-05 | < 1e-05 | < 1e-05 | – |
| AUAAAAGCGCCAGAACUACAGAAAUGUAGUUGACGAGGAGGAGGUGUAUCGAAUGUUCGCCGGAUGCCUCCAAA [U46G U55G G60C] | < 1e-05 | – | – | < 1e-05 |
| AUAAAAGCGCCAGAACUACAGAAAUGUAGUUGACGAGGAGGAGGUUUCUCGAAUAUUCGGCGGAUCCCUCCAAA [A48C U55A G66C] | < 1e-05 | – | – | – |
| AUAAAAGCGCCAGAACUACAGAAAUGUAGUUGCCGAGGAGGAGGUUUAUCGAAUUUUCCGGGGGUGCCUCCAAA [A33C G59C C61G A64G] | < 1e-05 | < 1e-05 | – | – |
| AUAAAACCGCCAGAAGUACAGAAAUGUAGUUGACGAGGAGGAGGUUUAUCGAAUUUUCGGCGGAUGCCUCCAAA [G7C C16G] | < 1e-05 | < 1e-05 | < 1e-05 | – |
| AUAAAGGCGCUAGAACUACAGAAAUGUAGUUGACGAGGAGGACGUUUAUCGAAUUUUCGGCGGAUGCCUCCAAA [A6G C11U G43C] | < 1e-05 | < 1e-05 | – | – |
| AUAAAAGCGCCAGAACUACAGAAAUGUAGGUGACGAGGUGGUGGUUUAUCGAAUUUUCGGCGGAUGCCUCCAAA [U30G A39U A42U] | 0.000126 ± 5.7e-05 | – | – | – |
| AUAAAAGCUCCAGAACUACAGAAAUGUAGUUCACGAGGAGGAGGUUUAUCGAAUUUUCGGCGGAUGCCUCCAAA [G9U G32C] | < 1e-05 | < 1e-05 | < 1e-05 | – |
| AUAAACCCGCCAGAACUACAGAAAUGUAGUUGCCGAGGAGGAGGUUUAUGGCAUUUUCGGCGGACGCCUCCAAA [A6C G7C A33C C50G A52C U65C] | < 1e-05 | – | – | – |
| AUAAAAACGCCAGAACUACAGAAAUGUAGUUGACGAGGAGUAGGUUUAUCGAAUUUUCGGCGGAUGCCUCCAAA [G7A G41U] | < 1e-05 | < 1e-05 | < 1e-05 | – |
| AUAAAAGCGCCAGAACUACAGAAAUGUAGUUGACGAGAAGGAGGUUUAUCGAAUUUUCGGCGGGUGUCUCCAAA [G38A A64G C67U] | < 1e-05 | – | – | – |

— the supplement of paper PMC7125110
